In patent US20190324032A1 (University of California, published 2019):
Substitutions are numbered along the chain they refer to. Names and notes keep the numbering of the source. One block for each binder: values may come before it.

Experiments:
CRY1 PHR R109Q = biological target: T1, CRY1 PHR R109Q (mouse, UniProt P97784 1-491); assay: size exclusion chromatography
T1 construct: also called CRY1 PHR R109Q mutant; not shown: N-terminal His6 tag / vector residues
T1 sequence: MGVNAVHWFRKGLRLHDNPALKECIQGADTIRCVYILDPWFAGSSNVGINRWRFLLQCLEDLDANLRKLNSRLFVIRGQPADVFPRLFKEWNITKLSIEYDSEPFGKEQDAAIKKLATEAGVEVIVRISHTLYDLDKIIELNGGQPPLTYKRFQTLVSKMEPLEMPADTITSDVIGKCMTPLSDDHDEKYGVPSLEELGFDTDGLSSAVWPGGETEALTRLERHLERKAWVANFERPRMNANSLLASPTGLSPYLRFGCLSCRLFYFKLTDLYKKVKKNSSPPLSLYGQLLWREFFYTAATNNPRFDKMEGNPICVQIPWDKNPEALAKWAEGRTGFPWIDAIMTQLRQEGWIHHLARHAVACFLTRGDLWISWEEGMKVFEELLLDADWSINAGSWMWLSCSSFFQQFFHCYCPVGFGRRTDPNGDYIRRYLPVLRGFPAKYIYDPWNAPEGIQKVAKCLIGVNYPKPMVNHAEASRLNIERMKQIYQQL
Experimental: (§1) For analysis of complex formation by size-exclusion chromatography (SEC), purified proteins were injected on a Superdex 200 10/300 GL or Superdex 75 10/300 GL analytical column at 10-50 μM (˜250 μL, 1:1 molar ratio) in 20 mM HEPES pH 7.5, 125 mM NaCl, 5% glycerol and 2 mM TCEP. Proteins were incubated for ˜30 min. or overnight and analyzed by SEC. All size-exclusion columns were calibrated with a low-molecular-weight gel filtration standards kit (GE Healthcare Life Sciences). The content of each peak was evaluated by SDS-PAGE and Coomassie staining.

CRY1 PHR P39A = biological target: T2, CRY1 PHR P39A (mouse, UniProt P97784 1-491); assay: size exclusion chromatography
T2 construct: also called CRY1 PHR P39A mutant; not shown: N-terminal His6 tag / vector residues
T2 sequence: T1 sequence with P39A, Q109R
Experimental: as §1

[1] = biological target: T3, His6-tagged mouse CRY1 PHR (photolyase homology region, amino acids 1-491) (mouse, UniProt P97784 1-491); assay: SEC of CRY1 PHR with preformed CLOCK:BMAL1 PAS-B dimer
T3 construct: Expressed in Sf9 cells; also called wild-type CRY1 PHR; not shown: N-terminal His6 tag / vector residues
T3 sequence: T1 sequence with Q109R
Experimental: as §1

[2] = biological target: mouse BMAL1 PAS-B (residues 329-441) (mouse, UniProt Q9WTL8 329-441); assay: size exclusion chromatography on Superdex 75
Experimental: as §1

[3] = biological target: T3, His6-tagged mouse CRY1 PHR (photolyase …); assay: GST pull-down
Experimental: Soluble proteins were purified using GS4B resin (GE Healthcare). GST-tagged proteins were eluted with 10 mM glutathione and peak elution was desalted into 20 mM HEPES pH 7.5, 125 mM NaCl, 5% glycerol and 2 mM TCEP. […] After rotation at 4° C. overnight, reactions were washed 3 times with the above buffer and eluted with 6× SDS. Samples were boiled for ˜5 min. and loaded on an SDS-PAGE gel for visualization by Coomassie stain.

[4] = biological target: T3, His6-tagged mouse CRY1 PHR (photolyase …); assay: size exclusion chromatography
Experimental: as §1

[5] = biological target: T4, CLOCK PAS-B domain (residues 261-395) site-specifically labeled with FAM at its N-terminus (human, UniProt O15516 261-395, FAM (fluorescein) at the N-terminus, attached with Sortase A from FAM-LPETGG onto the N-terminal glycine); assay: fluorescence polarization
T4 construct: Sortase ligation leaves residues of the FAM-LPETGG peptide in front of the N-terminal glycine; also called labeled CLOCK PAS-B; CLOCK PAS-B probe
T4 sequence: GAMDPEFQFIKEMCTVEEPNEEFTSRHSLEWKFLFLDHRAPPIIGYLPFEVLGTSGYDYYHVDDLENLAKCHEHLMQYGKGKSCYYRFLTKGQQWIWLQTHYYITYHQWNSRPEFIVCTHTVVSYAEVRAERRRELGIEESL

mouse BMAL1 PAS-B (residues 329-441), sequence (Q9WTL8 329-441): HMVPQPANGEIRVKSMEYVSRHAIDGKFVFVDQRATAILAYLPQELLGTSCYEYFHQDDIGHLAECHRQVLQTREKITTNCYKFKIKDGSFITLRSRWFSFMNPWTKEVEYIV

binding result [1]: binds
B1: mouse CLOCK PAS-B (residues 261-395) (other)
chain: QFIKEMCTVEEPNEEFTSRHSLEWKFLFLDHRAPPIIGYLPFEVLGTSGYDYYHVDDLENLAKCHEHLMQYGKGKSCYYRFLTKGQQWIWLQTHYYITYHQWNSRPEFIVCTHTVVSYAEVRAERRRELGIEESL
notes: also called CLOCK PAS-B domain; CLOCK PAS-B WT
binding result (CRY1 PHR R109Q): no binding (tested: 10-50 µM, 1:1 molar ratio)
binding result (CRY1 PHR P39A): no binding (tested: 10-50 µM, 1:1 molar ratio)

binding result [2]: no binding (tested: incubated 1:1)
B2: CLOCK PAS-B V315R (other)
chain: B1 chain with V55R
notes: also called CLOCK PAS-B V315R mutant

binding result [3]: no binding
B3: GST-CLOCK PAS-B W362A (other, not shown: a dimerising Fc or GST; small tags and cut ends)
chain: B1 chain with W102A

B4: CLOCK PAS-B H360Y (other)
chain: B1 chain with H100Y
notes: also called CLOCK PAS-B H360Y mutant
binding result [4]: no binding (tested: 10-50 µM, 1:1 molar ratio)

binding result [5]: binds
B5: CRY1 PHR (residues 1-491) after cleavage of the His6 tag, with residual vector sequence (Example 6) (other)
chain: GAMDPEFMGVNAVHWFRKGLRLHDNPALKECIQGADTIRCVYILDPWFAGSSNVGINRWRFLLQCLEDLDANLRKLNSRLFVIRGQPADVFPRLFKEWNITKLSIEYDSEPFGKERDAAIKKLATEAGVEVIVRISHTLYDLDKIIELNGGQPPLTYKRFQTLVSKMEPLEMPADTITSDVIGKCMTPLSDDHDEKYGVPSLEELGFDTDGLSSAVWPGGETEALTRLERHLERKAWVANFERPRMNANSLLASPTGLSPYLRFGCLSCRLFYFKLTDLYKKVKKNSSPPLSLYGQLLWREFFYTAATNNPRFDKMEGNPICVQIPWDKNPEALAKWAEGRTGFPWIDAIMTQLRQEGWIHHLARHAVACFLTRGDLWISWEEGMKVFEELLLDADWSINAGSWMWLSCSSFFQQFFHCYCPVGFGRRTDPNGDYIRRYLPVLRGFPAKYIYDPWNAPEGIQKVAKCLIGVNYPKPMVNHAEASRLNIERMKQIYQQL
